Experimental data taken from patent EP4775595A1 (Beijing Tuo Jie Biopharmaceutical Co. Ltd., dated 2026).
Like-named read-outs stand apart in the source and are kept apart here.

Columns and labels:
[1] = target: mouse IGF-1R on mouse myoblasts (C2C12) (mouse, UniProt Q60751 31-1373); assay: cell-based or functional assay
[2] = target: T1, hIGF-1R-ECD-avi-his (human IGF-1R extracellular region) (human, UniProt P08069 31-935); assay: SPR (Biacore T200), antigen captured by anti-His antibody on CM5 chip, antibody as analyte
T1 construct: It was captured on the chip through its His tag

[3] = target: T2, mouse IGF-1R (Acro, Cat. IGR-M5223) (mouse, UniProt Q60751 31-936, limits assumed); assay: as above
T2 construct: Bought reagent; also called murine IGF-1R

[4] = target: human IGF-1R on human non-small cell lung cancer cells (A549) (human, UniProt P08069 31-1367); assay: cell-based or functional assay
[5] = target: T1, hIGF-1R-ECD-avi-his (human IGF-1R …); assay: SPR (Biacore T200), antigen captured by anti-His antibody on CM5 chip, antibody as analyte; remark: listed apart in the source

T1 sequence (P08069 other isoform, or with tags, fused parts or gaps limits assumed): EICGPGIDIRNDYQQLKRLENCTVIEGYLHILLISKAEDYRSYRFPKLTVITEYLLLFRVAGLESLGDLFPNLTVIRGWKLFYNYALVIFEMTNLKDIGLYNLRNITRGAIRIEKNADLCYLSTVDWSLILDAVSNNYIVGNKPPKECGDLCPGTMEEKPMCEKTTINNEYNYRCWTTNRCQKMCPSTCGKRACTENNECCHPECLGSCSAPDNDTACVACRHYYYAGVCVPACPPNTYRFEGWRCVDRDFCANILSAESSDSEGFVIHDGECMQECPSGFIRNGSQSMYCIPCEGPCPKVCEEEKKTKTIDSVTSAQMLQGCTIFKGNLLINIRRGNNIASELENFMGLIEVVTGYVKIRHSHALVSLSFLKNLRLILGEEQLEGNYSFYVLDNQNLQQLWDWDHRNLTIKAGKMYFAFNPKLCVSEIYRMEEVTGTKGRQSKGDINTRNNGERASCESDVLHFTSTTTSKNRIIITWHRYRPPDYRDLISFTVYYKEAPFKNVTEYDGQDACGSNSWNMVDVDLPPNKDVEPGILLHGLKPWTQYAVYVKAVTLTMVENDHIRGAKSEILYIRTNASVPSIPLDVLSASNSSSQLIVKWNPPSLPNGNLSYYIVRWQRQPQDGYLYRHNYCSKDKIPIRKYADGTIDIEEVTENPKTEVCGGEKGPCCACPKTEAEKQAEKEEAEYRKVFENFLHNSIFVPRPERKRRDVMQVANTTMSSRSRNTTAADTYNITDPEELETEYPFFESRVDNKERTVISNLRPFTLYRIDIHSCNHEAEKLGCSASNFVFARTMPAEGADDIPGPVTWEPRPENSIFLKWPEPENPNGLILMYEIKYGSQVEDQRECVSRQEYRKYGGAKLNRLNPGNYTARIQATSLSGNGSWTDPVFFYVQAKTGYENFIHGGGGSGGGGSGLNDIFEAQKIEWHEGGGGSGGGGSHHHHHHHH
T2 sequence (Q60751 31-936 limits assumed): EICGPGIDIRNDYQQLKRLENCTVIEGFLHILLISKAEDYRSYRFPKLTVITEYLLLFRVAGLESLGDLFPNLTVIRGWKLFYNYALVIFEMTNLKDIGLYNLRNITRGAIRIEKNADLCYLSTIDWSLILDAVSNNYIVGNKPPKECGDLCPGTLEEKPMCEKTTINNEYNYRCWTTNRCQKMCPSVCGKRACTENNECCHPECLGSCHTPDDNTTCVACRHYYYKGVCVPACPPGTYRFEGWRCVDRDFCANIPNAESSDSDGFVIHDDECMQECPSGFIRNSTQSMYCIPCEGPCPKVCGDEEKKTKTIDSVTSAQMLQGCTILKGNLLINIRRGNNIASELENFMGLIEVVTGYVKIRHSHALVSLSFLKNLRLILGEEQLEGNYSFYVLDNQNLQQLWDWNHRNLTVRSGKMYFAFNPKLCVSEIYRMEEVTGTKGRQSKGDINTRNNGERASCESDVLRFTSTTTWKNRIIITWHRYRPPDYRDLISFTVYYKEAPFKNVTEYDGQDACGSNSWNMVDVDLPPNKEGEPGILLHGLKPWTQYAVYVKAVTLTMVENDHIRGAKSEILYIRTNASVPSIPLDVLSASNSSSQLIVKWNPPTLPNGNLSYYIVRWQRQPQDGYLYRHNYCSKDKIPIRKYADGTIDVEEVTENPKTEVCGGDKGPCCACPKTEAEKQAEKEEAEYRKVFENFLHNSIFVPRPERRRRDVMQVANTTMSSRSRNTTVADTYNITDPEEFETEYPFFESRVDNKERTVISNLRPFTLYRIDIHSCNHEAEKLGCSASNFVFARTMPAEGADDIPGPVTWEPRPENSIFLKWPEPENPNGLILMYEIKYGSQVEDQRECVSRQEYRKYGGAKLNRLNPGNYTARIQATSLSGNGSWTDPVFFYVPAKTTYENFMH
mouse IGF-1R on mouse myoblasts (C2C12), sequence (Q60751 31-1373): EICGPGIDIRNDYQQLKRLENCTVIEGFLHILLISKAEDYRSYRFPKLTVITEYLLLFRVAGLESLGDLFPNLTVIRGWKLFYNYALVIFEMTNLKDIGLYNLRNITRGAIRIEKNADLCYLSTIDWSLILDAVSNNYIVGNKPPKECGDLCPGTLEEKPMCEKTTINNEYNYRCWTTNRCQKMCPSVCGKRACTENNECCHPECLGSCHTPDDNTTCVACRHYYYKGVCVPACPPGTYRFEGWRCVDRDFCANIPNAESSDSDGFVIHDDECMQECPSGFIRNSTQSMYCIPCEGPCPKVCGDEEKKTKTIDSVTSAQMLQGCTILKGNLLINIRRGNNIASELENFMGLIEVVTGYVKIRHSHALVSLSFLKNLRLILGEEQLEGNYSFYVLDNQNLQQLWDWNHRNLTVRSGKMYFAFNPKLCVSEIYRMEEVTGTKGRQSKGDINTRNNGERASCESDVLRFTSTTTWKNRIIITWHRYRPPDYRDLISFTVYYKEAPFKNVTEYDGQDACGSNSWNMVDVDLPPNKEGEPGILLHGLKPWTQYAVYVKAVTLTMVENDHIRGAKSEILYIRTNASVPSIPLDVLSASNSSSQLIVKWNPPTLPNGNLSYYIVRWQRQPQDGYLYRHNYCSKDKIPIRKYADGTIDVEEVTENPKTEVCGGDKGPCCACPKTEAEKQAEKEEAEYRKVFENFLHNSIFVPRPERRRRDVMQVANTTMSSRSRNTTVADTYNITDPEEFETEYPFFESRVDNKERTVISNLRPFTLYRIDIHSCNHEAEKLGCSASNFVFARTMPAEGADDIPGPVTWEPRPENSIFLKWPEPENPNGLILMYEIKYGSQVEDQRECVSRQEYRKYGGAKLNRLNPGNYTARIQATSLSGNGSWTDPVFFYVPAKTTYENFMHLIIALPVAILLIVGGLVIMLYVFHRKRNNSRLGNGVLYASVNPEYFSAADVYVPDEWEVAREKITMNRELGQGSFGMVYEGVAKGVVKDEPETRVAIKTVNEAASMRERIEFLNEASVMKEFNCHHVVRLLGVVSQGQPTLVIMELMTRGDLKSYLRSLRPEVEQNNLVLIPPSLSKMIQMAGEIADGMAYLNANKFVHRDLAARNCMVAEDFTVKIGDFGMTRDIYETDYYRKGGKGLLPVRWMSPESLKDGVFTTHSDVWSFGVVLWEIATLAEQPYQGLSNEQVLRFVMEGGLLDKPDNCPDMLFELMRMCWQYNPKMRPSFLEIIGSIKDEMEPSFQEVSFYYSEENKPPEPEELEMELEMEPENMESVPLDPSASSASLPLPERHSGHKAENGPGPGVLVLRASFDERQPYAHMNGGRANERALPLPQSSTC
human IGF-1R on human non-small cell lung cancer cells (A549), sequence (P08069 31-1367): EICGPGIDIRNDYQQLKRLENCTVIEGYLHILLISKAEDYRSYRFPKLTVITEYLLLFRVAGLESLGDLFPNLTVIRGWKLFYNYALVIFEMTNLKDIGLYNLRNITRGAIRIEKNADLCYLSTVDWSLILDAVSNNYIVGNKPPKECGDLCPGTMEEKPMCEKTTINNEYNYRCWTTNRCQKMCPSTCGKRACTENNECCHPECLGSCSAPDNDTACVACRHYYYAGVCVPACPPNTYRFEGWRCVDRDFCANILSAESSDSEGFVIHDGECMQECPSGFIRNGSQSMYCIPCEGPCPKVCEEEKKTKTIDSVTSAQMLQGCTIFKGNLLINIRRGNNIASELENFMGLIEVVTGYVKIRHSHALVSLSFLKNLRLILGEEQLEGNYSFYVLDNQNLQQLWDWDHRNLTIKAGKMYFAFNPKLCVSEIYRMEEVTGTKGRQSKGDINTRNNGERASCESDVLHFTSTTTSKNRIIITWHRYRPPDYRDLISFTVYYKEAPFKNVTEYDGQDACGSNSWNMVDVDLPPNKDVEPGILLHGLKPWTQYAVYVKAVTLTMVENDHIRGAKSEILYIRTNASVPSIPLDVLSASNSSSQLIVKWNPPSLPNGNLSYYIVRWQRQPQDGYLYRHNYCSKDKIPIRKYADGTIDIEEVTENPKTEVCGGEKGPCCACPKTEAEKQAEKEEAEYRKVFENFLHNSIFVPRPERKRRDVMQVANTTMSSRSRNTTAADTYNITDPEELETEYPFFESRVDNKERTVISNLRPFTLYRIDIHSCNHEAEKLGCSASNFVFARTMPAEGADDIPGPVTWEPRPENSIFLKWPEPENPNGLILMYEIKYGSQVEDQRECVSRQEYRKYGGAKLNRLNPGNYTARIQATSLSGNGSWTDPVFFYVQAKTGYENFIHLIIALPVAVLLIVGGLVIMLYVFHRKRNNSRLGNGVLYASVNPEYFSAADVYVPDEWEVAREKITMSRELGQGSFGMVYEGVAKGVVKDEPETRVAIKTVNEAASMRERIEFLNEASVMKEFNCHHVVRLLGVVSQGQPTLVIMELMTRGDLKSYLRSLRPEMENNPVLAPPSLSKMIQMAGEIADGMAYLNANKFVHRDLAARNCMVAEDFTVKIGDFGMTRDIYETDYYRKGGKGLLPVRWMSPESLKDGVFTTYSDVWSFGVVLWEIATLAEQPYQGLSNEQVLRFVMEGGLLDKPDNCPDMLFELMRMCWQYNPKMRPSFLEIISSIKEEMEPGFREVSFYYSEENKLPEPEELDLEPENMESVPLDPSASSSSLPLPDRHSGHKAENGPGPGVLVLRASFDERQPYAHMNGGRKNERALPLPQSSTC

B1: PHP1003 (Suzhou PRO-HEAL, CN113512116) (antibody, V domains shown)
VH: QVQLQESGPGLVKPSGTLSLTCAVSGGSISSSNWWSWVRQPPGKGLEWIGEIYHSGSTNYNPSLKSRVTISVDKSKNQFSLKLSSVTAADTAVYYCARWTGRTDAFDIWGQGTMVTVSS
VL: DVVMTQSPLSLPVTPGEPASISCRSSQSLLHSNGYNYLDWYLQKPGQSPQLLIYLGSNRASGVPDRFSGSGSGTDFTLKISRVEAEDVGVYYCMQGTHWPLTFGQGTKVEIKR
notes: Positive control anti-IGF-1R antibody
With B1 the “IC50 (nM), inhibition of IGF1-induced pAKT signaling in C2C12 cells” value [1] was 4240 nM, the Kd [2] was 0.262 nM and the koff [2] was 0.00107 s⁻¹. It also gave a kon [2] of 4.1e+06 M⁻¹ s⁻¹, a Kd [3] of 0.337 nM and a koff [3] of 0.00112 s⁻¹. For the same binder, the kon [3] was 3.32e+06 M⁻¹ s⁻¹ and the “IC50 (nM), inhibition of IGF1-induced pAKT signaling in A549 cells” value [4] was 33.6 nM.

B2: IG05-hu1 (VHH)
VHH: EVQLVESGGGLVQPGGSLRLSCTASGLTFGTFGMAWFRQAPGKEREGVSAISASSGRTYYADSVKGRFTISRDNSKNTLYLQMNSLRAEDTAVYYCAVRSKNGAGYGFWYEARLYGYWGQGTLVTVSS
notes: Humanized IG05; also called IG05-hul
B2 was tested, and the Kd [5] was 0.395 nM, the koff [5] was 0.00072 s⁻¹ and the kon [5] was 1.82e+06 M⁻¹ s⁻¹.

B3: IG05-hu2 (VHH)
VHH: EVQLVESGGGLVQPGGSLRLSCTASGLTFGTFGMAWFRQAPGKEREGVSAISASSGRTYYADSVKGRFTISRDNAKNTLYLQMNSLRAEDTAVYYCAVRSKNGAGYGFWYEARLYGYWGQGTLVTVSS
notes: Humanized IG05
Binder B3 has a Kd [5] of 0.361 nM, a koff [5] of 0.000772 s⁻¹ and a kon [5] of 2.14e+06 M⁻¹ s⁻¹.

B4: IG05-hu5 (VHH)
VHH: EVQLVESGGGLVQPGGSLRLSCAASGFTFGTFGMAWFRQAPGKEREGVSAISASSGRTYYADSVKGRFTISRDNSKNTLYLQMNSLRAEDTAVYYCAVRSKNGAGYGFWYEARLYGYWGQGTLVTVSS
notes: Humanized IG05
In the case of B4, the Kd [5] is reported as 0.258 nM, the koff [5] is reported as 0.000474 s⁻¹ and the kon [5] is reported as 1.83e+06 M⁻¹ s⁻¹.

B5: IG05-hu4 (VHH)
VHH: EVQLVESGGGLVQPGGSLRLSCAASGLTFGTFGMAWFRQAPGKEREGVSAISASSGRTYYADSVKGRFTISRDNSKNTLYLQMNSLRAEDTAVYYCAVRSKNGAGYGFWYEARLYGYWGQGTLVTVSS
notes: Humanized IG05
B5 gave a Kd [5] of 0.507 nM, a koff [5] of 0.000882 s⁻¹ and a kon [5] of 1.74e+06 M⁻¹ s⁻¹.

B6: IG05 (VHH)
VHH: QVQLVESGGGLVQAGGSLRLSCTASGLTFGTFGMAWFRQAPGKEREGVSAISASSGRTYYADSVKGRFTISRDNAKNTLYLQMDALKPEDTAMYYCAVRSKNGAGYGFWYEARLYGYWGQGTQVTVSS
notes: Camel single-domain antibody against IGF-1R
Binder B6 has a Kd [5] of 0.346 nM, a koff [5] of 0.000749 s⁻¹ and a kon [5] of 2.17e+06 M⁻¹ s⁻¹.

B7: IG05-hu3 (VHH)
VHH: EVQLVESGGGLVQPGGSLRLSCTASGLTFGTFGMAWFRQAPGKEREGVSAISASSGRTYYADSVKGRFTISRDNSKNTLYLQMDALRAEDTAVYYCAVRSKNGAGYGFWYEARLYGYWGQGTLVTVSS
notes: Humanized IG05
B7 showed a Kd [5] of 0.403 nM, a koff [5] of 0.000723 s⁻¹ and a kon [5] of 1.79e+06 M⁻¹ s⁻¹.

B8: IG06-hu4 (VHH)
VHH: EVQLVESGGGLVQPGGSLRLSCAASRYIVSTRCLGWVRQAPGKEREEVSTIDTAGRPTYADSVKGRFTISRDGAKNFLYLQMNSLRAEDTAVYYCAAASSDNCRYFPSNLGQGTLVTVSS
B8 gave a Kd [5] of 4 nM, a koff [5] of 0.00299 s⁻¹ and a kon [5] of 748000 M⁻¹ s⁻¹.

B9: IG06-hu5 (VHH)
VHH: EVQLVESGGGLVQPGGSLRLSCAASRYIVSTRCLGWVRQAPGKEREEIATIDTAGRPTYADSVKGRFTISRDGAKNFLYLQMNSLRAEDTAVYYCAAASSDNCRYFPSNLGQGTLVTVSS
Binder B9 has a Kd [5] of 2.67 nM, a koff [5] of 0.0024 s⁻¹ and a kon [5] of 899000 M⁻¹ s⁻¹.

B10: IG06 (VHH)
VHH: QVQLVESGGGSVQAGGSLRLSCAASRYIVSTRCLGWVRQAPGNEREEIATIDTAGRPTYADSVKGRFTISKDGAKNFLYLQMNSLKPEDTAMYYCAAASSDNCRYFPSNLGQGTQVTVSS
notes: as for B6
In the case of B10, the Kd [5] is reported as 0.889 nM, the koff [5] is reported as 0.000675 s⁻¹ and the kon [5] is reported as 759000 M⁻¹ s⁻¹.

B11: IG06-hu1 (VHH)
VHH: EVQLVESGGGLVQPGGSLRLSCAASRYIVSTRCLGWVRQAPGKEREEVSTIDTAGRPTYADSVKGRFTISRDNSKNTLYLQMNSLRAEDTAVYYCAAASSDNCRYFPSNWGQGTLVTVSS
With B11 the Kd [5] was 29.3 nM, the koff [5] was 0.0265 s⁻¹ and the kon [5] was 905000 M⁻¹ s⁻¹.

B12: IG06-hu3 (VHH)
VHH: EVQLVESGGGLVQPGGSLRLSCAASRYIVSTRCLGWVRQAPGKEREEVSTIDTAGRPTYADSVKGRFTISRDGAKNFLYLQMNSLRAEDTAVYYCAAASSDNCRYFPSNWGQGTLVTVSS
B12 gave a Kd [5] of 27.3 nM, a koff [5] of 0.0231 s⁻¹ and a kon [5] of 847000 M⁻¹ s⁻¹.

B13: IG06-hu6 (VHH)
VHH: EVQLVESGGGLVQPGGSLRLSCAASRYIVSTRCLGWVRQAPGNEREEVSTIDTAGRPTYADSVKGRFTISRDNSKNTLYLQMNSLRAEDTAVYYCAAASSDNCRYFPSNLGQGTLVTVSS
Work on B13 yielded a Kd [5] of 1.55 nM, a koff [5] of 0.00226 s⁻¹ and a kon [5] of 1.46e+06 M⁻¹ s⁻¹.

B14: IG06-hu2 (VHH)
VHH: EVQLVESGGGLVQPGGSLRLSCAASRYIVSTRCLGWVRQAPGKEREEVSTIDTAGRPTYADSVKGRFTISRDNSKNFLYLQMNSLRAEDTAVYYCAAASSDNCRYFPSNWGQGTLVTVSS
In the case of B14, the Kd [5] is reported as 34.7 nM, the koff [5] is reported as 0.0277 s⁻¹ and the kon [5] is reported as 800000 M⁻¹ s⁻¹.
